Measurements published in publication doi:10.1101/598128 (bioRxiv, 2019).

T1: 6xHis-Hop1 (budding yeast, UniProt P20050 1-605)
T1 sequence (looked up): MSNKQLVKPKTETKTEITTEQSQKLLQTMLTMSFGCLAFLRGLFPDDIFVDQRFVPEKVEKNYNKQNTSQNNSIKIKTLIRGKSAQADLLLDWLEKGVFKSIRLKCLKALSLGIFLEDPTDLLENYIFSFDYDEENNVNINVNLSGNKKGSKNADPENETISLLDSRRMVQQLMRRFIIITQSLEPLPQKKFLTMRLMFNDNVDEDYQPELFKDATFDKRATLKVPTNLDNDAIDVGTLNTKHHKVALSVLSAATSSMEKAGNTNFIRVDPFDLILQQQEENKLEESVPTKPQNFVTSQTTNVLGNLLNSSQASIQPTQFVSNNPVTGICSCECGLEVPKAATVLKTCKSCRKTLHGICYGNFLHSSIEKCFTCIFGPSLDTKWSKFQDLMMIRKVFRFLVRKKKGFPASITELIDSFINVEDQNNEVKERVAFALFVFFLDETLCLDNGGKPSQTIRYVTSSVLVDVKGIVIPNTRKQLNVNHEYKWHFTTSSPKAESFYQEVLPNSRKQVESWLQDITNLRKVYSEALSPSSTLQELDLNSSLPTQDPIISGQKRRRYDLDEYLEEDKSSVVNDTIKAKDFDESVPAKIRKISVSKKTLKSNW

T2: His-Orc1 (subunit of the purified His-ORC complex) (budding yeast, UniProt P54784 1-913)
T2 sequence: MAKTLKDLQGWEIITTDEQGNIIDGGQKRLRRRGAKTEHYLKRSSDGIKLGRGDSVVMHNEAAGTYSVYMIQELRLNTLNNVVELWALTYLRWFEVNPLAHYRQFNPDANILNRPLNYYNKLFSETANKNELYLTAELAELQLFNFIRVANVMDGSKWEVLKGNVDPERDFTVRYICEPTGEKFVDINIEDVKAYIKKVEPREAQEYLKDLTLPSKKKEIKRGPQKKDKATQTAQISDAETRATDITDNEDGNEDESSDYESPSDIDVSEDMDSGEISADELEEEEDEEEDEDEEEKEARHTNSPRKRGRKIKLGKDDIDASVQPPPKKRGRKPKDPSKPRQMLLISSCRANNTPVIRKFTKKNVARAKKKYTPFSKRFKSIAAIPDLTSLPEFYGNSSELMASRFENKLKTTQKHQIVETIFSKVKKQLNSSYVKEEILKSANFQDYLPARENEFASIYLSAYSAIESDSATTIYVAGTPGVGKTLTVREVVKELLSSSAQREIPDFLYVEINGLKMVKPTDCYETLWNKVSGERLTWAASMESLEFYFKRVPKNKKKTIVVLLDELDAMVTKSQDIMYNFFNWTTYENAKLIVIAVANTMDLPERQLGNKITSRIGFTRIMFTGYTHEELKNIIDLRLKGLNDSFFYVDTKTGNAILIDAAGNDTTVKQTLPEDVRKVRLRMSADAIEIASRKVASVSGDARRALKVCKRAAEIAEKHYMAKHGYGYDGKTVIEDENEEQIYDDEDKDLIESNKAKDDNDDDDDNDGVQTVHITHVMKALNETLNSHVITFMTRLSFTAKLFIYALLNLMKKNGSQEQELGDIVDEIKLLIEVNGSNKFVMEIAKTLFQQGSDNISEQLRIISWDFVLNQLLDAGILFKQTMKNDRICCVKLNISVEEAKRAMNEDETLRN

B1: Orc5 (subunit of the purified His-ORC complex) (natural protein, budding yeast)
chain: MNVTTPEVAFREYQTNCLASYISADPDITPSNLILQGYSGTGKTYTLKKYFNANPNLHAVWLEPVELVSWKPLLQAIARTVQYKLKTLYPNIPTTDYDPLQVEEPFLLVKTLHNIFVQYESLQEKTCLFLILDGFDSLQDLDAALFNKYIKLNELLPKDSKINIKFIYTMLETSFLQRYSTHCIPTVMFPRYNVDEVSTILVMSRCGELMEDSCLRKRIIEEQITDCTDDQFQNVAANFIHLIVQAFHSYTGNDIFALNDLIDFKWPKYVSRITKENIFEPLALYKSAIKLFLSTDDNLSENGQGESAITTNRDDLENSQTYDLSIISKYLLIASYICSYLEPRYDASIFSRKTRIIQGRAAYGRRKKKEVNPRYLQPSLFAIERLLAIFQAIFPIQGKAESGSLSALREESLMKANIEVFQNLSELHTLKLIATTMNKNIDYLSPKVRWKVNVPWEIIKEISESVHFNISDYFSDIHE
B2: His-MBP-Pch2 (natural protein, budding yeast, UniProt P38126 1-564, looked up)
chain: MSYIVDLQVRGSSLRVIKCMFREDEQISSLHSGSDSKQNSNKKLGEFLNLLKAVVKRKLESFPKDRLKTSIITGQELMREGQGSIEIKDPPTEAQQHLIRSLAKVLLHQFSSINGKVNTVNEGQDNLFLSLFVKKISIEQQSTSHVSIKLNFHEKINLGQHIDSILDSEETNESDTYHMGSVDEFIIYPFCCLEEQDELKNGSILSTEFDKIDLELDEDDGFEGETLNNCINSVGNFDIPLSKQTLNLVNISYLPGTTFEGQWESLYFGNNIKERLYSYATISLKIARFKQTGDSNQEDITTLITNNKLLLVHGPPGTGKTTLCKALCQKLSVRREFSDGSDTIDTNYKGIIIELSCARIFSKWFGESSKNISIVFKDIEELLKVNEGRGIFICLLIDEVEAIASSRTNLSSRNESTDGIRVVNTLLTQLDRLKKYHNFLALATSNLLDSLDDAFVDRADGVFYVGNPTAEGILHILKVCIEEMITSGIILFHARSTGVKFFNKYQDILRKIAIKCSTVDISGRTIRKLPLMCLSEYFRTFPVDDDEFVLALAMSARKLSAARK

Experiments:
His-MBP-Pch2 = biological target: B2; test: cross-linking
SEC = biological target: the molecule itself; test: SEC
6xHis-Hop1 = biological target: T1, 6xHis-Hop1; test: pull-down
[1] = biological target: T2, His-Orc1 (subunit of the purified …); test: cross-linking

binding result (His-MBP-Pch2) | binding result (6xHis-Hop1) | binding result [1] | Binder | stoichiometry N (SEC)
binds |  |  | B1 | 
 | binds | binds | B2 | 6
